The target in this assay is T1, recombinant human RNF43 extracellular domain (human, UniProt Q68DV7 24-197).
T1 construct: extracellular domain; also called huRNF43; human RNF43 ECD
T1 sequence (looked up): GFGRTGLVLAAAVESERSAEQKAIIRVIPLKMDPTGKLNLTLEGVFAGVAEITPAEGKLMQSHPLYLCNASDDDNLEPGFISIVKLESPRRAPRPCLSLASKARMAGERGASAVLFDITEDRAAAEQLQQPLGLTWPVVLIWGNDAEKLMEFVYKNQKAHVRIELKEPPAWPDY
Description: SPR Biacore 8K; antibody captured on Protein A; RNF43 ECD analyte; 25 C. As for the experimental part:
Antibodies were screened for binding to recombinant human RNF43 and ZNRF3 ECDs using a Biacore® 8 k instrument (GE Life Sciences). Briefly, antibodies diluted to 1 μg/ml in 1×HBSP buffer (Cytiva, BR100368) were captured on a Sensor Chip Protein A (GE Life Sciences) using a flow rate of 10 μl/minute and a contact time of 60 seconds. Binding of recombinant human RNF43 and ZNRF3 extracellular domain to the captured antibodies was analyzed at 25° C. using a single cycle kinetics method with a flow rate of 30 μl/minute, a contact time of 180 seconds and a dissociation time of 600 seconds. The concentration of recombinant human RNF43 and ZNRF3 extracellular domain in the single cycle kinetics were 0, 0.8, 4, 20, and 100 nM. Between cycles, the chip was regenerated using 10 mM Glycine HCl pH 1.5 injected for 30 seconds at 30 μl/minute. Data were evaluated using Biacore 8K Evaluation software (GE Life Sciences). Kinetic constants were obtained using a 1:1 binding model with the parameter RI set to zero. Cell surface ligase antibodies with sub-nanomolar affinities may provide advantages in certain instances, for example, in the degradation efficiency which is correlated with the durability of the ternary complex as shown in FIG. 5D.

B1: RNF43-107 (antibody, V domains shown)
VH: EVQPVESGGGLVQPGRSLKLSCPASGFTFSNYDMAWVRQAPTKGLEWVASISPSGGRTYYRDSVKGRFTISRDNSKSTLYLQMDSLRSEDTATFYCATHRYYSYFDFWGQGVMVTVSS
VL: DIQMTQSPASLSASLGETISIDCRTSEDIYNNLAWYQQKSGRSPQLLISATNRLQDGVPSRFSGSGSGTQYSLKISGMQPEDEGVYFCLQGSKYPYTFGTGTKLELK
notes: Rat clone; VH/VL only
For the molecule B1, the Kd was determined as 0.341 nM.

B2: RNF43-170 (antibody, V domains shown)
VH: EVQLVESGGGLVPPGRSLKLSCVASGFTFNDYYMAWVRQAPTKGLEWVASISYEGRRTYYGDSVKGRFTISRDNAKSTLYLQMNSLRSDDTATYYCATHSNYIFDYWGQGVMVTVSS
VL: DIRMTQSPASLSASLGETVNIECLASEDIYSDFAWFQQKPGQSPLLLIYNGNSLQNGVPSRFSGSGSGTQYSLKINSLQSEDVATYFCQQYNNYPPTFGGGTKLELK
notes: Rat clone; VH/VL only
Turning to B2, the Kd amounted to 76 nM.

B3: RNF43-179 (antibody, V domains shown)
VH: EVQLVESGGGLVQPGRSLKLSCVASGFTFNDYYMAWVRQAPKKGLEWVASINYEGSRTYYGDSVKGRFTISRDNAKSTLYLQMNSLRSEDTATYYCATHSNYIFDNWGQGVMVTVSS
VL: DIRMTQSPASLSASLGETVNIECLASEDIYSDFAWFQQKPGQSPLLLIYNGNNLQNGVPSRFSGSGSGTQYSLKINSLQSEDVATYFCQQYNNYPPTFGGGTKLELK
notes: Rat clone; VH/VL only
Regarding B3, the Kd was found to be 31.7 nM.

B4: RNF43-156 (antibody, V domains shown)
VH: EVQLKESGPGLVQPSQTLSLTCTVSGFSLTDYSVYWVRQPPGKGLEWMGVMWRGGTTAYNSALKSRLSISRDTSKSQVFLKMNSLQTEDTAIYYCTRGGKYDGTYYYGWYFDFWGPGTMVTVSS
VL: DVVLTQSPATLSVTPGERISLSCRASESVDTYLYWYQQKPNESPRLLIKYASQSISGIPSRFSGSGSGTDFTLSINGVELEDLSIYYCQQGNSLPLTFGSGTKLEIK
notes: Rat clone; VH/VL only
For the molecule B4, the Kd was determined as 0.209 nM.

B5: RNF43-224 (antibody, V domains shown)
VH: EVQLKESGPGLVQPSQTLSLTCTVSGFSLSDYSVHWVRQPPGKGLEWMGVMWSGGTTAYNSALKSRLSISRDTSKNQVLLEMNSLQTEDTAIYYCTRGGKYDGTYYYGWYFDFWGPGTMVTVSS
VL: DVVLTQSPATLSVTPGERISLSCRASESVDTYLSWYQQKPNESPRLLIKYASQSISGIPSRFSGSGSGTDFTLSINGVELEDLSIYYCQQGNSLPLTFGSGTKLEIK
notes: Rat clone; VH/VL only
As for B5, the Kd stood at 0.584 nM.

B6: RNF43-126 (antibody, V domains shown)
VH: EVQLQESGPGLVKPSQSLSLTCSVTGFSITSSHRWNWIRKFPGNKLEWMGYINSAGSTNYNPSLKSRISITRDTSKNQFFLQVNSVTTEDTATYYCTRLGLQYRDFDYWGQGVMVTVSS
VL: DIQMTQSPASLSASLGETISIECRASDDIYSNLAWYQQKSGKSPQLLIYAANRLKDGVPSRFSGSGSGTQYSLKISGMQTEDEGDYFCLQASKFPLTFGSGTKLEIK
notes: Rat clone; VH/VL only
For B6, the Kd was 1.75 nM.

B7: RNF43-217 (antibody, V domains shown)
VH: EVQLQESGPGLVKPSQSLSLTCSVTGFSITSSHRWNWIRKFPGNKLEWMGYINSAGSTNYNPSLKSRVSITRDASKNQFFLQVNSVTTEDTATYYCTRLGLQYRDFDYWGQGVMVTVSS
VL: DIQMTQSPASLSASLGETISIECRASDDIYSNLAWYQQKSGKSPQLLIYAANRLKDGVPSRFSGSGSGTQYSLKISGMETEDEGDYFCLQASKFPLTFGSGTKLEIK
notes: Rat clone; VH/VL only
With B7, the Kd was found to be 1.49 nM.

B8: RNF43-117 (antibody, V domains shown)
VH: QVSLKESGPGMLQPSQTLSLTCTFSEFSLSTYGLGVGWIRQPSGKGLEWLANIWWDDDKYYNPSLKNRLTISKDTSNNQAFLKITNVDTADTATYYCARIDGRWHYFDYWGQGDRVIVSS
VL: DIVLTQTPSILSATIGQSVSISCRSTQSLLDSDGNTYLYWFLQRPGQSPQRLIYLVSNLGSGVPNRFSGSGSGTDFTLKISGVEAEDLGFYYCMQGAHTPLTFGSGTKLEIK
notes: Rat clone; VH/VL only
B8: the Kd stood at 19.8 nM.

B9: RNF43-201 (antibody, V domains shown)
VH: QVTLKEYGPGILQPSQTLSLTCTFSGFSLRTYGMGVGWIRQPSGKGLEWLTNIWWDDDKYYNPSLKNRLTISKDTSNNQAFLKITNVDTEDSATYYCARIDGTFNYFDYWGQGVMVTVSS
VL: DVVLTQTPSRLSATIGQSVSISCRSSQSLLDSDGNTYLYWFLQRPGQSPQRLIYLVSNLGSGVPNRVSGSGSGTDFTLKISGVEAEDLGIYYCLQATHAPLTFGSGTKLEIK
notes: Rat clone; VH/VL only
Turning to B9, the Kd was 9.9 nM.

B10: RNF43-152 (antibody, V domains shown)
VH: QVTLKESGPGILQPSQTLSLTCTFSGSSLSTYGMGVGWIRQPSGKGLEWLANIWWDDDKYYNPSLKNRLTISKDTSNNQSFLKIANVDTADTATYYCARIDGTYNYFDYWGQGVMVTVSS
VL: DVVLTQTPSRLSATIGQSVSISCRSSQSLLDSYGNTYLSWFLQRPGQSPQRLIFLVSNLGSGVPNRVSGSGSGTDFTLKISGVEAEDLGVYYCMQTTHDPLTFGSGTKLEIK
notes: Rat clone; VH/VL only
As for B10, the Kd stood at 17.8 nM.

B11: RNF43-129 (antibody, V domains shown)
VH: EVQLVESGGGLVQPGRSMKLSCAASGFTFSNYDMAWVRQAPKKGLEWVASITYDVSSTYYRDSVKGRFTISRDNAKSTLYLQMDSLRSEDTATYYCTTLDRAGYYYDGYGFYWFANWGQGTLVTVSS
VL: DIQMTQSPSSMSVSLGDTVTITCRASQDVKIYVNWFQQKPGKSPRQMIYRATNLADGVSSRFSGSRSGSDYLFTISSLESEDVADYHCLQYDEYPPTFGSGTKVEIK
notes: Rat clone; VH/VL only
Turning to B11, the Kd was 1.17 nM.

B12: RNF43-221 (antibody, V domains shown)
VH: EVQLVESGGGLVQPGRSLKLSCTASGFTLSDYAMAWVRQAPEKGLEWVATISYDGSRTYYGGSVKGRFTISRDNAENILYLQMDSLRSADTATYYCANSATPHYWGQGVMVTVSS
VL: DVVMTQTPASLSLAIGQPASISCKSSQSLLDTSRKTFLNWILQRPGQSPKRLIYQVSKLYSEVPDRFSGSGSETEFTLKISRVEAEDLGVYYCWQGTHFPDTFGAGTKLELK
notes: Rat clone; VH/VL only
For the molecule B12, the Kd is 51.6 nM.

B13: RNF43-176 (antibody, V domains shown)
VH: QVQLKESGPGLVQPSQTLSLTCTVSGFSLTSYHVSWVRQPPGKGLEWMGVIWTGGSTAYNSLLKSRLSISRDISKSQVFLKMNSLQTEDTATYYCASQYYGYTSYFDYWGQGVMVTVSS
VL: DIQMTQSPVSLSASPEEIVTITCQASQDIDNWLTWYQQKPGKSPQLLIYSATSLADGIPSRFSGSRSGTQYSLKISRLQIEDTGIYYCLQRYGNPWTFGGGTKLELK
notes: Rat clone; VH/VL only
Regarding B13, the Kd came to 5.71 nM.

B14: RNF43-168 (antibody, V domains shown)
VH: QVQLKESGPGLVQPSQTLSLTCTVSGFSLNRYHVSWVRQPPGKGLEWMGVVWTGGSTAYNSLLKSRLSISRDISKSQVFLKMISLQTEDTATYYCVSQYYGYTSYFDYWGQGVMVTVSS
VL: DIQMTQSPASLSASPEEIVTVTCQASQDIDNWLTWYQQKPGKSPQLLIYSATSLADGIPSRFSGSRSGTQYSLKIDRLQVEDTGIYYCLQRYGNPWTFGGGTKLELK
notes: Rat clone; VH/VL only
On to B14, for which the equilibrium dissociation constant (Kd) worked out at 1.36 nM.

B15: RNF43-200 (antibody, V domains shown)
VH: QVQLKESGPGLVQPSQTLSLTCTVSGFSLTSYHISWVRQPPGKGLEWMGVIWTGGSTAYNSLLKSRLSISRDISKSQVFLKMNSLQAEDTATYYCAGSYYGYTSYFDYWGQGVMVTVSS
VL: DIQMTQSPASLSASPEEIVTITCQASQDIDNWLAWYQQKPGKSPQLLIYSATRLADGIPSRFSGSRSGIQYSLKINRLQVEDTGIYYCLQRFGNPWTFGGGTKLELK
notes: Rat clone; VH/VL only
With B15, the Kd was determined as 0.539 nM.

B16: RNF43-206 (antibody, V domains shown)
VH: QVQLKESGPGLVQPSQTLSLTCTVSGFSLTSFHISWVRQPPGKGLEWMGIIWTGGSTAYNSLLKSRLSISRDISKSQVFLKMNSLQTEDTATYYCAGSYHGYTSYFDYWGQGVMVTVSS
VL: DIQMTQSPASLSASPEEIVTITCQASQDIDNWLAWYQQQPGKSPQLLIYSATSLADGIPSRFSGSRSGTQYSLKINRLQVEDTGIYYCLQRYSNPWTFGGGTKLELK
notes: Rat clone; VH/VL only
Turning to B16, the Kd amounted to 0.58 nM.

B17: RNF43-180 (antibody, V domains shown)
VH: EAQLVESGGGLVRPGRSLKLTCAASGFTFSHYDMAWVRQAPARGLEWVASIGPGGGLTHYRDSVKGRFTVSRDHAESSLYLQMDSLRSEDTATYYCARHYGWSYFDYWGQGVMVTVSS
VL: DIQMTQSPSFLSASLGDSITITCHASQNIKGWLAWYQQKSGNAPELLIYTASGLRSGVPSRFSGSGSGTDYILTISNLQPEDFATYYCQHYQSFPNTFGAGTKLELR
notes: Rat clone; VH/VL only
Consider B17, for which the Kd was 2.81 nM.

B18: RNF43-106 (antibody, V domains shown)
VH: QIQLGQSGPELTKPGESVKISCKASGYTFSDYPIHWVKQAPGKGLKWMGWINTYTGKPTFADDFKGRFVFSLEASASTANLQISNLKNEDTATYFCALGPISTVFYAMDAWGQGTSVTVSS
VL: DIQMTQSPSFLSASVGDRVTINCKASQNINKYLNWYQQKLGEAPKRLIYNTNNLQTGIPSRFSGSGSGTDYTLTISSLQPEDFATYFCLQHNSFPYTFGAGTKLELK
notes: Rat clone; VH/VL only
B18: the Kd amounted to 15.6 nM.

B19: RNF43-123 (antibody, V domains shown)
VH: QIQLVQSGPELKKPGESVKISCKASGYTFTDYPMHWVKQAPGKGLKWMGWINTYTGKPTYADDFKGRFVFSLEASANTANLQISNLKNDDTATYFCALGPISTVFYAVDAWGQGTSVTVSS
VL: DIQMTQSPSFLSASVGDRVTINCKASQNINKYLNWYQQKVGEAPKRLMYNTNNLQTGIPSRFSGSGSGTDYTLTISSLQPEDFATYFCLQHNSFPYTFGPGTELELK
notes: Rat clone; VH/VL only
In the case of B19, the Kd was found to be 13.4 nM.

(Values after patent US20240101708A1 (Genentech, published 2024).)
